In patent US20170114104A1:

Biological target: Biotin-AP (biotinylated AP-peptide with a fluorescent dye)
Experiment: native-PAGE off-rate under excess biotin, 37 °C

koff [s⁻¹]	Binder
5.1e-05	Monodin (MA) (designed binder) FDASNFKDFSSIASASSSWQNQHGSTMIIQVDSFGNVSGQYVNRAEGTGCQNSPYPLTGRVNGTFIDFSVKWNNSTENCNSNTQWTGYAQVNGNNTEIVTRWNLKYEGGSGPAIWQGQDTFQYVPTTE
4.9e-05	Rhizavidin (RA) (protein) FDASNFKDFSSIASASSSWQNQSGSTMIIQVDSFGNVSGQYVNRAQGTGCQNSPYPLTGRVNGTFIAFSVGWNNSTENCNSATGWTGYAQVNGNNTEIVTSWNLAYEGGSGPAIEQGQDTFQYVPTTE
